Data: the supplement of paper PMC9170038

Test system: MS2 coat protein
Assay: apparent KD of MS2 coat protein; designed switch direction (-1 OFF switch, 1 ON switch): -1; higher = weaker reporter binding
Method in brief: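 Designed RNA switches with common flanks were made on Illumina chips by stalled E. coli RNA polymerase. Titration with SNAP-549-labelled MS2 coat protein doubled from 0.7 or 1.5 nM up to 3 µM. Apparent KD is each design's median over clusters after curve-fitting normalised fluorescence.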

[1] = Eterna round: R95, input ligand: FMN 200 uM
[2] = Eterna round: R95, input ligand: microRNA oligo, concentration not stated
[3] = Eterna round: R95, input ligand: none
[4] = input ligand: microRNA oligo, concentration not stated

| Sequence | apparent KD of MS2 coat protein (input ligand: FMN 200 uM) [nM] | apparent KD of MS2 coat protein (input ligand: none) [nM] | apparent KD of MS2 coat protein [2] [nM] | other results |
| --- | --- | --- | --- | --- |
| GGUCGACAUGAGGAUCACCCAUGUCAGGAUAUCUACAUUGAAGCUUCGGCUUCAAUGUAGAGAAGGGACAUAAU [E1/14-B1] (Eterna round: R97, puzzle: Exclusion 1) | 35.3 | 30.1 | – | – |
| UAGUGCUGAGGAUAUACAUGAGGAUCACCCAUGUGCCUUUAACUUAAAGUGUGCACAAGUAGAAGGCGGUGCAA [Eternabot (L1) Solution 93] (Eterna round: R97, puzzle: Exclusion 3) | 20 | 19.5 | – | – |
| GAUUAGACUAAGGAUAUUACGAGCUCUGUGCCGUGAGAAGGUAGCACAUGAGGAUCACCCAUGUGACCAUCAUG [Eternabot (L2) Solution 81] (Eterna round: R97, puzzle: Exclusion 6) | 180 | 58.6 | – | – |
| CAUGGAUGUGAGCCGCAUUACAUGAGGAUCACCCAUGUCAACAAGCUUUUUGCUUGUCUUACGCGGCGGCAUCAAAA [Geonso] (puzzle: Sensor v3, turn-off variant 1) | – | – | 9.86 | apparent KD of MS2 coat protein [1]: 12 nM; apparent KD of MS2 coat protein [3]: 10.3 nM |
| CUUUUGUGAGGAUAUCAGUAGUUAAAAAAUAAAAUUACUACUGAGAAGGCACAUGAGGAUCACCCAUGUUCCUC [salish99_ex4_r3_016] (puzzle: Exclusion 4) | – | – | 40.5 | – |
| ACUCUAUAGUAGGAUAUCAUCAAACUAUUGUGAUGAGAAGGACUAACAUGAGGAUCACCCAUGUUAACGUGAAG [Mod of Brourd 5 - Jieux - Exclusion 6] (Eterna round: R97, puzzle: Exclusion 6) | 24.3 | 21.1 | – | – |
| GGUGGACAUGAGGAUCACCCAUGUGAGGAUAUCGGCUGGCUAGUGGCGGAUGGCUUCUCGAGAAGGCGCAUAGU [Exclusion 1 V80] (puzzle: Exclusion 1) | – | – | 50.2 | – |
| AUGCGUGGCUAGGAUAUCGAGGAAUUUAGCCAGCGAGAAGGAGCCACAUGAGGAUCACCCAUGUGGUGAACCUU [jl-ex6-4.64 ViennaUCT mod] (Eterna round: R97, puzzle: Exclusion 6) | 14.5 | 15.8 | – | – |
| GUAAACGAUCAGGAUAUAUCAAAUCAUAGCUUGAUAGAAGGGAUCACAUGAGGAUCACCCAUGUGAUCUUCUUU [jl-ex6-4.15 ViennaUCT mod] (Eterna round: R97, puzzle: Exclusion 6) | 13.2 | 13.9 | – | – |
| ACAUGAGGAUCACCCAUGUCCGGCUGGUCUGUCUCGGCUGUCGAGGAUAUAGCUCGGUAUCCGCGCUAGAAGGCGGGAGCCGGC [Aenatbe mod 90] (Eterna round: R96, puzzle: Exclusion NG 3) | 98 | 72.7 | – | apparent KD of MS2 coat protein [4]: 43.5 nM |
| GAGUCCUUGGUGAGGAUAUGGCGAGGAGCACUUGUCCAGAAGGCACAUGAGGAUCACCCAUGUUCUAGUAAUUG [Eternabot (L2) Solution 75] (Eterna round: R97, puzzle: Brourd's mod of Exclusion 4) | 77.2 | 30.2 | – | – |
| CGAUGACGAGUGAGGAUAUCGUGUUCGAAAGAACGUGAGAAGGCACAUGAGGAUCACCCAUGUGAUCCUCAUCG [Omei Ex4B A26] (Eterna round: R97, puzzle: Brourd's mod of Exclusion 4) | 708 | 57.1 | – | – |
| ACCUCACAUGAGGAUCACCCAUGUCAGGAUAUUCAAACAGGCGAAACUCCGCCUUCUCGAAGAAGGGACAUUAA [Israon] (Eterna round: R96, puzzle: Exclusion 1) | 82.1 | 17.7 | – | apparent KD of MS2 coat protein [4]: 14.6 nM |
| GCGCAGCUGGUAGGAUAUUACAGACAGGACUCACGUAAGGGAGCCUGACAUGAGGAUCACCCAUGUAAGAAGGGCCGUGGUAUC [Eternabot solution 11] (Eterna round: R96, puzzle: Exclusion NG 2) | 34.5 | 22.5 | – | apparent KD of MS2 coat protein [4]: 19.8 nM |
| UGUAGAGUGGUAGGAUAUCCGGCUGUUUCAGUCGGAGAAGGACCACAGUCACUGGGUCCUUAUAUGGGUGACCAUGUAUCUACU [pwkr exNG1 F6.7] (Eterna round: R96, puzzle: Exclusion NG 1) | 558 | 395 | – | apparent KD of MS2 coat protein [4]: 305 nM |
| CCGGAAAUGGAGGAUAUAGGAGUCGAUAGACACCUAGAAGGUCAUACAUGAGGAUCACCCAUGUGUCCUACCGG [Fiskers Ex 6 - 79] (puzzle: Exclusion 6) | – | – | 12.9 | – |
| GAUUAUGCGAGCUUUAGGGACAUGAGGAUCACCCAUGUUCGUCUUAUUAGUCUAGGUACACUGACAUACCUAAAUCU [JMF 67] (puzzle: Sensor v3, turn-off variant 1) | – | – | 33.1 | apparent KD of MS2 coat protein [1]: 22.7 nM; apparent KD of MS2 coat protein [3]: 23.6 nM |
| CAAACAAAGUCAGGAUAUGUCAAAUUUGUUACGACAGAAGGGACGGGACCGACACUCACAGACAUGAGGAUCACCCAUGUAAAA [Areris] (Eterna round: R96, puzzle: Exclusion NG 1) | 37.8 | 33.5 | – | apparent KD of MS2 coat protein [4]: 19 nM |

| Sequence | apparent KD of MS2 coat protein (input ligand: FMN 200 uM) [nM] | apparent KD of MS2 coat protein (input ligand: none) [nM] | apparent KD of MS2 coat protein [2] [nM] | other results |
| --- | --- | --- | --- | --- |
| GGUGGACAUGAGGAUCACCCAUGUGAGGAUAUCGGCUGGCUAGCGGCGGAUGGCUUCUCGAGAAGGCGCAUAGU [Exclusion 1 V81] (puzzle: Exclusion 1) | – | – | 62.7 | – |
| UUGUACCGGUGAGGAUAUUUUUAAUAGAGCUUUAUGAUAUACAUGAGGAUCACCCAUGUUACGUUAAAGAAGGCAUCGGAUUAU [JL JR Sub091 mod 4] (Eterna round: R96, puzzle: Exclusion NG 2) | 18.6 | 21.6 | – | apparent KD of MS2 coat protein [4]: 13.9 nM |
| UUACUGCAAGGAUAUACAUGAGGAUCACCCAUGUUAAUGACACGGUGCAGCUUCGACAGUAGAAGGUGCGUGGG [Eternabot (L1) Solution 71] (Eterna round: R97, puzzle: Exclusion 3) | 43.2 | 34.7 | – | – |
| UUUUGUCAGGUAUUUAUUAACAUGAGGAUCACCCAUGUGCAUCCAAAAUUACUUUUAGAUCAAGCUCGUCUUAUAUA [JR_STOV1_Sub089] (Eterna round: R97, puzzle: Sensor, turn-off variant 1) | 94.3 | 102 | – | – |
| AUGCGACAUGAGGAUCACCCAUGUGAGGAUAUGCGAAUGCAUACUUCGGUGUGAUAGAGUAGAAGGCGCAGGUA [EX1 #17] (Eterna round: R97, puzzle: Exclusion 1) | 472 | 761 | – | – |
| UCGGCGCGAGGAUAUACGUUUGCGCGUUUUCGUUUGCGCGUACAUGAGGAUCACCCAUGUAGAAGGCGCGCGGC [Apr-15 SS2-13] (puzzle: Exclusion 2) | – | – | 11.5 | – |
| ACAUGAGGAUCACCCAUGUGAAAAGAAUGGCUGACACAGAGAUAGGAUAUGCGUGCAUAUCUAACGCAGAAGGGUCAUGACUGG [Deportation 81 - Jieux - Exclusion NG 3] (Eterna round: R96, puzzle: Exclusion NG 3) | 25.9 | 28.3 | – | apparent KD of MS2 coat protein [4]: 22.4 nM |
| GCGCUGUCAGGAUAUCGCGCGCGCGCGGAAAUGUGUGUGUGUGAGAAGGGACAUGAGGAUCACCCAUGUGGUGU [-28.5, -27.5 kcal, A 20%, 6-6bis] (Eterna round: R97, puzzle: Exclusion 4) | 213 | 583 | – | – |
| ACAAGCUAUAUGCUCGGUUACAUGAGGAUCACCCAUGUACUCAUGUUCUUAUGUACUGACACGAAAGUGUUAGUAAU [AK-miRNA-r3-1] (Eterna round: R97, puzzle: Sensor, turn-off variant 1) | 110 | 122 | – | – |
| CAGUACUGAGGAUAUACAUGAGGAUCACCCAUGUGCCUUAGCUAGGAUACUAGCAUUAGUAGAAGGCAGUACUG [Fiskers Ex 3 828 mod 14] (puzzle: Exclusion 3) | – | – | 14.2 | – |
| CUGAGCUCAGGAUAUACAUGAGGAUCACCCAUGUGUUCCUGCGACGUUAGUUGCACAUGUAGAAGGGAGUUCGG [Less Extended Mod of JL - ex3-3.35 Brourd mod] (puzzle: Exclusion 3) | – | – | 218 | – |
| GGAGGGAAAGUGAGGAUAUCCGGAGGGAAACCUCCGGAGAAGGCACAUGAGGAUCACCCAUGUAAGGAAGGAGG [AK-MS2ROC-r4-Bmoexclusion4-1.1] (Eterna round: R97, puzzle: Brourd's mod of Exclusion 4) | 203 | 135 | – | – |
| CAGUACUGAGGAUAUACAUGAGGAUCACCCAUGUGUCCCUGCUAGGAAACUAGCAAUAGUAGAAGGCAGUACUG [Fiskers Ex 3 828 mod 4] (puzzle: Exclusion 3) | – | – | 17 | – |
| GCUUGUCGAGGAUAUGCAUACACUGGAUACAGUGGAAGGUCACAUGAGGAUCACCCAUGUAGAAGGCGACGAGC [EX2 #39] (Eterna round: R97, puzzle: Exclusion 2) | 121 | 41.8 | – | – |
| CGAUAAAAGACAGGAUAUGAGGAGAGAGAGAGAUCAGAAGGGUCACAUGAGGAUCACCCAUGUGAGUUCUCGAUAAGAAAGAGG [Prohibition 52 - Jieux - Exclusion NG 1] (Eterna round: R96, puzzle: Exclusion NG 1) | 19.3 | 21 | – | apparent KD of MS2 coat protein [4]: 14.6 nM |
| CCGGCUUAGGAGGAUAUAGGAGUCGAUAGACACCUAGAAGGCCUAACAUGAGGAUCACCCAUGUGUCCUACCGG [Fiskers Ex 6 - 99] (puzzle: Exclusion 6) | – | – | 16.3 | – |
| CGUAGCAAUGUGAGGAUAUCUAGAGCCUCGGCUCUAGAGAAGGCACAUGAGGAUCACCCAUGUGAUUAGCUACG [BmEx4/9-B2] (Eterna round: R97, puzzle: Brourd's mod of Exclusion 4) | 597 | 405 | – | – |
